Results from PMC8560851 (Scientific Reports, 2021).
Where a chain is given by its changes, count along the chain named. Values belong to the binder of their own block, whether it stands above or below them.

Experiments:
[1] = molecular target: T1, VEGF antigen as co-crystallised with the bH1-Fab H3 variants (Homo sapiens, VEGF-A residues 1-110 of …); assay: crystal structure; co-crystallization of bH1-Fab H3 variants with the VEGF antigen and X-ray diffraction; methods in Shi et al. (in preparation); conditions: both partners purified
T1 construct: VEGF-A, human
T1 chain: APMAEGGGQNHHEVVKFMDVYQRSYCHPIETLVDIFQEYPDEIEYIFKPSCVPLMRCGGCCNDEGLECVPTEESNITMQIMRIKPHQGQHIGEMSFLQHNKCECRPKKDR

[2] = molecular target: T2, Full-length isoform 165 of human VEGF-A (Homo sapiens, VEGF-A isoform 165, UniProt P15692-4); assay: SPR; Biacore T200, 25 °C, PBS with 0.05% Tween 20 and 3.4 mM EDTA; VEGF-A amine-coupled to a CM-5 chip; Fab injected in single cycle kinetics with five increasing concentrations; double referenced; fit to a 1:1 Langmuir binding model; conditions: both partners purified
T2 construct: VEGF-A isoform 165, human; Immobilised by amine coupling for SPR; Made in HEK cells, so probably the secreted 165-residue form without signal peptide (surmise); source: HEK, recombinant, purified
T2 sequence (P15692 other isoform, or with tags, fused parts or gaps): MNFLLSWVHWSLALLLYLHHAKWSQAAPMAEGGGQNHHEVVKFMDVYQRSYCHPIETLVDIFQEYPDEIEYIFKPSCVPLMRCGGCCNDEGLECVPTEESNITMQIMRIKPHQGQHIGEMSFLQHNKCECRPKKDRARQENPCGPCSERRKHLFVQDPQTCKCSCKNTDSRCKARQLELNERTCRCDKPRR

binding result [1]: binds
Kd [2]: 2.8 µM
B1: bH1 Fab H3 variant 14_0130 (Fab, V domains shown)
VH: EVQLVESGGGLVQPGGSLRLSCAASGFNIKDTYIHWVRQAPGKGLEWVARIYPTNGYTRYADSVKGRFTISADTSKNTAYLQMNSLRAEDTAVYYCAKLGIGYYYYGMDVWGQGTLVTVSS
VL: DIQMTQSPSSLSASVGDRVTITCRASQDIPRSISGYVAWYQQKPGKAPKLLIYWGSYLYSGVPSRFSGSGSGTDFTLTISSLQPEDFATYYCQQHYTTPPTFGQGTKVEIK
notes: also in PDB 7KF1; also called design 14_0130; source: CHO-3E7, co-transfected, purified from supernatant (HisTrap IMAC, SEC Superdex-200)

Kd [2]: > 50 µM
binding result [2]: no binding (tested: > 50,000 nM)
B2: bH1 Fab H3 variant 14_0822 (Fab, V domains shown)
VH: EVQLVESGGGLVQPGGSLRLSCAASGFNIKDTYIHWVRQAPGKGLEWVARIYPTNGYTRYADSVKGRFTISADTSKNTAYLQMNSLRAEDTAVYYCGRSGPRLGMYYFDFWGQGTLVTVSS
VL: B1 VL
notes: source: CHO-3E7, co-transfected, purified from supernatant (HisTrap IMAC, SEC Superdex-200)

Kd [2]: 5 µM
B3: bH1 Fab H3 variant 14_0905 (Fab, V domains shown)
VH: B1 VH with A97V, K98R, L99G, I101Y, G102L, Y103R, Y104D
VL: B1 VL
notes: as for B2

binding result [1]: binds
B4: bH1 Fab H3 variant 16_0325 (Fab, V domains shown)
VH: EVQLVESGGGLVQPGGSLRLSCAASGFNIKDTYIHWVRQAPGKGLEWVARIYPTNGYTRYADSVKGRFTISADTSKNTAYLQMNSLRAEDTAVYYCARGGAVAGTGVYYFDYWGQGTLVTVSS
VL: B1 VL
notes: also in PDB 7KEZ; also called design 16_0325; source: CHO-3E7, co-transfected, purified from supernatant (HisTrap IMAC, SEC Superdex-200)

Kd [2]: 0.1 µM
B5: parental bH1 Fab (Fab, V domains shown)
VH: not shown
VL: B1 VL
notes: heavy chain of the bH1 Fab; light chain of the bH1 Fab; also called bH1 antibody; parental antibody; source: CHO-3E7, co-transfected, purified from supernatant (HisTrap IMAC, SEC Superdex-200)

Kd [2]: 50 µM
B6: bH1 Fab H3 variant 16_0102 (Fab, V domains shown)
VH: EVQLVESGGGLVQPGGSLRLSCAASGFNIKDTYIHWVRQAPGKGLEWVARIYPTNGYTRYADSVKGRFTISADTSKNTAYLQMNSLRAEDTAVYYCAKGWEGTTVTLTPVDYWGQGTLVTVSS
VL: B1 VL
notes: as for B2

Kd [2]: 0.31 µM
B7: bH1 Fab H3 variant 15_0485 (Fab, V domains shown)
VH: EVQLVESGGGLVQPGGSLRLSCAASGFNIKDTYIHWVRQAPGKGLEWVARIYPTNGYTRYADSVKGRFTISADTSKNTAYLQMNSLRAEDTAVYYCARHGVRGYYYYYMDVWGQGTLVTVSS
VL: B1 VL
notes: as for B2

Kd [2]: 2.72 µM
B8: bH1 Fab H3 variant 14_0480 (Fab, V domains shown)
VH: B2 VH with G97A, S99G, G100L, P101E, L103S, M105N, F108L, F110Y
VL: B1 VL
notes: as for B2

Kd [2]: 4.97 µM
B9: bH1 Fab H3 variant 14_0622 (Fab, V domains shown)
VH: B2 VH with G97A, S99N, P101G, R102D, L103S, G104Y, M105S, Y106G, D109Q, F110H
VL: B1 VL
notes: as for B2

Kd [2]: 3.6 µM
B10: bH1 Fab H3 variant 14_0688 (Fab, V domains shown)
VH: B2 VH with G97A, P101R, R102D, L103A, G104Y, M105N, F110S
VL: B1 VL
notes: as for B2

Kd [2]: 3.48 µM
B11: bH1 Fab H3 variant 14_0129 (Fab, V domains shown)
VH: B1 VH with I101G, G102Q, Y103G, Y104S, G107H, M108F, V110Y
VL: B1 VL
notes: as for B2

binding result [1]: binds
Kd [2]: 1.6 µM
B12: bH1 Fab H3 variant 12_0327 (Fab, V domains shown)
VH: EVQLVESGGGLVQPGGSLRLSCAASGFNIKDTYIHWVRQAPGKGLEWVARIYPTNGYTRYADSVKGRFTISADTSKNTAYLQMNSLRAEDTAVYYCARGRKYSSSFDYWGQGTLVTVSS
VL: B1 VL
notes: also in PDB 7KF2; also called design 12_0327; source: CHO-3E7, co-transfected, purified from supernatant (HisTrap IMAC, SEC Superdex-200)

Kd [2]: 59 µM
B13: bH1 Fab H3 variant 14_0472 (Fab, V domains shown)
VH: B2 VH with G97A, S99G, G100I, P101A, R102V, L103A, M105A, F110Y
VL: B1 VL
notes: as for B2

binding result [1]: binds
Kd [2]: 0.08 µM
B14: bH1 Fab H3 variant 13_0346 (Fab, V domains shown)
VH: EVQLVESGGGLVQPGGSLRLSCAASGFNIKDTYIHWVRQAPGKGLEWVARIYPTNGYTRYADSVKGRFTISADTSKNTAYLQMNSLRAEDTAVYYCARGGSFYYYYMDVWGQGTLVTVSS
VL: B1 VL
notes: also in PDB 7KF0; also called design 13_0346; source: CHO-3E7, co-transfected, purified from supernatant (HisTrap IMAC, SEC Superdex-200)

Kd [2]: 4.5 µM
B15: bH1 Fab H3 variant 16_0460 (Fab, V domains shown)
VH: B4 VH with G99P, G100S, A101G, V102G, A103S, G104R, T105S, G106W, V107L
VL: B1 VL
notes: also called design 16_0460; source: CHO-3E7, co-transfected, purified from supernatant (HisTrap IMAC, SEC Superdex-200)

Kd [2]: 3.59 µM
B16: bH1 Fab H3 variant 14_0490 (Fab, V domains shown)
VH: B1 VH with K98R, L99G, G100N, I101E, G102A, Y103G
VL: B1 VL
notes: as for B2
